Laboratory results from patent US20250277048A1 (Regeneron, published 2025).

T1: monkey CD40 extracellular domain expressed with a C-terminal myc-myc-hexahistidine tag (monkey)
T1 construct: also called mfCD40-MMH; REGN3097
T1 chain: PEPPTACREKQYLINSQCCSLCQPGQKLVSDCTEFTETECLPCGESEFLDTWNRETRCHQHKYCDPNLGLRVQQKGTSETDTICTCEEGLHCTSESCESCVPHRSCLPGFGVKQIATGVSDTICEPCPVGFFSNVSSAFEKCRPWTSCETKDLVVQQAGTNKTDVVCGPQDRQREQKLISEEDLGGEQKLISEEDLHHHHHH

B1: 21519P2 (antibody, human IgG4 S228P, kappa, V domains shown)
VH: QLQLQESGPGLVRPSETLSLTCSVSGASMNTNNYYWGWIRQPPGKGLEWIGSGYYNGNTYYNPSLKSRVTISVDTSKNQFSLKLNSVTAADTAVYYCARQTPPRIIGSPNIWGQGTMVTVSS
VL: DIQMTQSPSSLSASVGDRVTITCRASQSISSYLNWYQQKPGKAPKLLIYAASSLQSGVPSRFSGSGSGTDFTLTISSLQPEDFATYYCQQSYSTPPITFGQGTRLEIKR
notes: parental bivalent anti-CD40 mAb; common light chain; also called H4sH21519P2
B2: 21520P2 (antibody, human IgG4 S228P, kappa, V domains shown)
VH: EVQLVESGGGLVQPGGSLRLSCAASGFTFGSYGMAWVRQAPGKGLEWVSAISGSGDYTNYADSVKRRFTISRDNSKNTLYLQMSSLRAEDTAVYYCAKEKTGTTGYLYSGMDVWGQGTTVTVSS
VL: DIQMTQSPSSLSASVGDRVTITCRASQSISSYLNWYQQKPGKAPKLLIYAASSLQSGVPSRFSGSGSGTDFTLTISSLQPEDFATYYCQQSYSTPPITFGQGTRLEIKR
notes: parental bivalent anti-CD40 mAb; common light chain; also called H4sH21520P2
B3: 30027P2 (antibody, human IgG4 S228P, kappa, V domains shown)
VH: EVQLVESGGGLVQPGGSLRLSCAASGFTFSSYAMNWVRQAPGKGLEWVSIISGTIGKTYYADSVKGRFTISRDNSKNTLYLQMNSLRGEDTAVYYCAKDTERDITGSPFDYWGQGTLVTVSS
VL: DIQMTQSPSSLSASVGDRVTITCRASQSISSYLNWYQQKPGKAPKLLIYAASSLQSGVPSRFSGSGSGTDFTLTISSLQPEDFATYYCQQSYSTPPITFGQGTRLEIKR
notes: parental bivalent anti-CD40 mAb; common light chain; also called H4sH30027P2
B4: REGN16431 (bispecific antibody, human IgG4 S228P, kappa)
heavy 1: QLQLQESGPGLVRPSETLSLTCSVSGASMNTNNYYWGWIRQPPGKGLEWIGSGYYNGNTYYNPSLKSRVTISVDTSKNQFSLKLNSVTAADTAVYYCARQTPPRIIGSPNIWGQGTMVTVSSASTKGPSVFPLAPCSRSTSESTAALGCLVKDYFPEPVTVSWNSGALTSGVHTFPAVLQSSGLYSLSSVVTVPSSSLGTKTYTCNVDHKPSNTKVDKRVESKYGPPCPPCPAPPVAGPSVFLFPPKPKDTLMISRTPEVTCVVVDVSQEDPEVQFNWYVDGVEVHNAKTKPREEQFNSTYRVVSVLTVLHQDWLNGKEYKCKVSNKGLPSSIEKTISKAKGQPREPQVYTLPPSQEEMTKNQVSLTCLVKGFYPSDIAVEWESNGQPENNYKTTPPVLDSDGSFFLYSRLTVDKSRWQEGNVFSCSVMHEALHNHYTQKSLSLSLGK
heavy 2: EVQLVESGGGLVQPGGSLRLSCAASGFTFGSYGMAWVRQAPGKGLEWVSAISGSGDYTNYADSVKRRFTISRDNSKNTLYLQMSSLRAEDTAVYYCAKEKTGTTGYLYSGMDVWGQGTTVTVSSASTKGPSVFPLAPCSRSTSESTAALGCLVKDYFPEPVTVSWNSGALTSGVHTFPAVLQSSGLYSLSSVVTVPSSSLGTKTYTCNVDHKPSNTKVDKRVESKYGPPCPPCPAPPVAGPSVFLFPPKPKDTLMISRTPEVTCVVVDVSQEDPEVQFNWYVDGVEVHNAKTKPREEQFNSTYRVVSVLTVLHQDWLNGKEYKCKVSNKGLPSSIEKTISKAKGQPREPQVYTLPPSQEEMTKNQVSLTCLVKGFYPSDIAVEWESNGQPENNYKTTPPVLDSDGSFFLYSRLTVDKSRWQEGNVFSCSVMHEALHNRFTQKSLSLSPGK
light: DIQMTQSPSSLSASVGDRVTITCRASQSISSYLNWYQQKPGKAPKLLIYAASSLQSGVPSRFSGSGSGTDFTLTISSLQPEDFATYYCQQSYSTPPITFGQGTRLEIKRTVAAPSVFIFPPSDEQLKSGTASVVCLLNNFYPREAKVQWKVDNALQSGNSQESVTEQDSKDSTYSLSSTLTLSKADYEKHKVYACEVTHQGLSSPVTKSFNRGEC
notes: D1 arm from 21519P2, D2 arm from 21520P2, common light chain; also called CD40xCD40 (21519 x 21520)
B5: REGN16432 (bispecific antibody, human IgG4 S228P, kappa)
heavy 1: EVQLVESGGGLVQPGGSLRLSCAASGFTFSSYAMNWVRQAPGKGLEWVSIISGTIGKTYYADSVKGRFTISRDNSKNTLYLQMNSLRGEDTAVYYCAKDTERDITGSPFDYWGQGTLVTVSSASTKGPSVFPLAPCSRSTSESTAALGCLVKDYFPEPVTVSWNSGALTSGVHTFPAVLQSSGLYSLSSVVTVPSSSLGTKTYTCNVDHKPSNTKVDKRVESKYGPPCPPCPAPPVAGPSVFLFPPKPKDTLMISRTPEVTCVVVDVSQEDPEVQFNWYVDGVEVHNAKTKPREEQFNSTYRVVSVLTVLHQDWLNGKEYKCKVSNKGLPSSIEKTISKAKGQPREPQVYTLPPSQEEMTKNQVSLTCLVKGFYPSDIAVEWESNGQPENNYKTTPPVLDSDGSFFLYSRLTVDKSRWQEGNVFSCSVMHEALHNHYTQKSLSLSLGK
heavy 2: EVQLVESGGGLVQPGGSLRLSCAASGFTFGSYGMAWVRQAPGKGLEWVSAISGSGDYTNYADSVKRRFTISRDNSKNTLYLQMSSLRAEDTAVYYCAKEKTGTTGYLYSGMDVWGQGTTVTVSSASTKGPSVFPLAPCSRSTSESTAALGCLVKDYFPEPVTVSWNSGALTSGVHTFPAVLQSSGLYSLSSVVTVPSSSLGTKTYTCNVDHKPSNTKVDKRVESKYGPPCPPCPAPPVAGPSVFLFPPKPKDTLMISRTPEVTCVVVDVSQEDPEVQFNWYVDGVEVHNAKTKPREEQFNSTYRVVSVLTVLHQDWLNGKEYKCKVSNKGLPSSIEKTISKAKGQPREPQVYTLPPSQEEMTKNQVSLTCLVKGFYPSDIAVEWESNGQPENNYKTTPPVLDSDGSFFLYSRLTVDKSRWQEGNVFSCSVMHEALHNRFTQKSLSLSPGK
light: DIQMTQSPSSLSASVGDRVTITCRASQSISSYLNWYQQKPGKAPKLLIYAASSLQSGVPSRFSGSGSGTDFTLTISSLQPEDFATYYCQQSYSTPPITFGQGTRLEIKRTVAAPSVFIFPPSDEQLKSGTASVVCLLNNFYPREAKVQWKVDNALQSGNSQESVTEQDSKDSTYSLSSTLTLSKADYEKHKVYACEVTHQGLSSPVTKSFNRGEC
notes: D1 arm from 30027P2, D2 arm from 21520P2, common light chain; also called CD40xCD40 (30027 x 21520)

Legend:
[1] = molecular target: T2, human CD40 extracellular domain expressed with a C-terminal myc-myc-hexahistidine tag (human); experiment: SPR Biacore 4000, mAb captured, 25C; 25° C.
T2 construct: also called hCD40-MMH; hCD40-mmH
Description: The equilibrium dissociation constants (KD) for anti-CD40 bivalent and bispecific monoclonal antibodies (mAbs) were determined using a real-time surface plasmon resonance (SPR)-based Biacore 4000 biosensor. All binding studies were performed in 10 mM HEPES, 150 mM NaCl, 3 mM EDTA, and 0.05% v/v surfactant Tween-20, pH 7.4 (HBS-ET) running buffer at 25° C. and 37° C. The Biacore CM5 sensor surface was first derivatized by amine coupling with a monoclonal mouse anti-human Fc antibody (REGN2567) to capture anti-CD40 bivalent parental and anti-CD40×CD40 bispecific antibodies. […] The dissociation of different CD40 reagents bound to anti-CD40 bivalent parental and anti-CD40×CD40 bispecific antibodies was monitored for 10 minutes in HBS-ET running buffer. […]
(§1) The association rate (ka) and dissociation rate (kd) were determined by fitting the real-time binding sensorgrams to a 1:1 binding model with mass transport limitation using Scrubber 2.0c curve-fitting software. Binding dissociation equilibrium constant (KD) and dissociative half-life (t_{1/2}) were calculated from the kinetic rates as: KD(M)=kd/kₐ, and t_{1/2} (min)=[ln(2)/(60*kd)].

[2] = molecular target: T3, Macaca fascicularis CD40 (mfCD40) expressed on HEK293/D9/mfCD40 cells (Macaca fascicularis, UniProt G7PG38 21-278); experiment: flow cytometry, HEK293/D9/mfCD40 cells
T3 construct: whole, on cells; also called monkey CD40
Description: (§2) Cells were washed with 2% FBS (w/v) in 1×PBS (flow cytometry staining buffer) by centrifugation with benchtop Centrifuge 5810R (Eppendorf®, Hamburg, Germany). Cells were incubated for 30 minutes at 4° C. with serial dilutions of following antibodies ranging from 1.7 pM to 100 nM in flow cytometry staining buffer (1) anti-CD40×CD40 bispecific antibodies, or (2) parental anti-CD40 antibodies (bivalent antibodies comprising 2 fragment antigen-binding [Fab] arms identical to one of the two anti-CD40 Fab of bispecific anti-CD40×CD40 antibodies), or (3) anti-CD40×Irrelevant antibodies (bivalent antibodies that incorporate one Fab arm identical to one of anti-CD40 Fab of anti-CD40×CD40 antibodies and another Fab arm specific to an irrelevant antigen, i.e. birch pollen main allergen Bet v1), or (4) human IgG4 isotype control antibodies with Fc mutation. After washing, cell bound antibodies were detected with 2.5 μg/ml Allophycocyanin (APC)-conjugated goat anti-human IgG antibody specific for the Fcγ fragment (Jackson Immunoresearch, West Grove, PA) for 30 minutes at 4° C. Cells were washed and subsequently fixed with 50% solution of Cytofix™ Fixation Buffer (BD, Franklin Lakes, NJ) in flow cytometry staining buffer for 20 minutes at room temperature. Cells were washed and resuspended in flow cytometry staining buffer and stored at 4° C. for downstream flow cytometry analysis.
(§3) Acquisition of fluorescence signals were recorded on the ZE5 Cell Analyzer (Bio-Rad, Hercules, CA) according to the manufacturer's recommended procedure and flow cytometry data analysis was performed using the open-source R packages flowCore, flowStats, flowDensity, ggCyto, and flowAI. Multiplexed samples were deconvoluted and individual cell populations were identified based on their unique CellTrace™ fluorescence signature. APC Median Fluorescence intensity (MFI) was recorded to indicate the binding intensity of each antibody over a range of concentrations. Antibodies with MFI greater than 1500 at the highest tested concentration (100 nM) were classified as specific binders. In addition, direct binding signals (APC MFI) were analyzed as a function of the antibody concentration and data were fitted with a sigmoidal (four-parameter logistic) dose-response model using GraphPad Prism™ software.

[3] = molecular target: T4, human CD40 (hCD40) expressed on cells (human, UniProt P25942 21-277); experiment: flow cytometry, Ramos 2G6.4C10 cells
T4 construct: whole, on cells; one entry for transfected and endogenous human CD40; the cell line is named under assay or readout; also called HEK293/D9/hCD40; Ramos 2G6.4C10
T4 sequence (P25942 21-277): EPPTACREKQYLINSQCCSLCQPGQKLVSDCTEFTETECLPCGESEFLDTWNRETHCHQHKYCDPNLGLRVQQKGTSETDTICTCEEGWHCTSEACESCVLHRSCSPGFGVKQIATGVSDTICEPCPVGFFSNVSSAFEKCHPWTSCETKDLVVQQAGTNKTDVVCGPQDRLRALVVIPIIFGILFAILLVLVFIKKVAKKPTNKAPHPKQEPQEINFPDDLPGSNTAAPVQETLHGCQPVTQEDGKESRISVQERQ
Description: as §2, §3

[4] = molecular target: T4, human CD40 (hCD40) expressed on cells; experiment: cell-based or functional assay
[5] = molecular target: T1, monkey CD40 extracellular domain …; experiment: SPR Biacore 4000, mAb captured, 37C
Description: The equilibrium dissociation constants (KD) for anti-CD40 bivalent and bispecific monoclonal antibodies (mAbs) were determined using a real-time surface plasmon resonance (SPR)-based Biacore 4000 biosensor. All binding studies were performed in 10 mM HEPES, 150 mM NaCl, 3 mM EDTA, and 0.05% v/v surfactant Tween-20, pH 7.4 (HBS-ET) running buffer at 25° C. and 37° C. The Biacore CM5 sensor surface was first derivatized by amine coupling with a monoclonal mouse anti-human Fc antibody (REGN2567) to capture anti-CD40 bivalent parental and anti-CD40×CD40 bispecific antibodies. Different concentrations of CD40 reagents, human CD40 extracellular domain expressed with a C-terminal myc-myc-hexahistidine tag (SEQ ID NO: 1114) (“hCD40-MMH”; REGN3094; SEQ ID NO: 53), monkey CD40 extracellular domain expressed with a C-terminal myc-myc-hexahistidine tag (SEQ ID NO: 1114) (“mfCD40-MMH”; REGN3097; SEQ ID NO: 54), and mouse CD40 extracellular domain expressed with a C-terminal myc-myc-hexahistidine tag (SEQ ID NO: 1114) (“mCD40-MMH”; REGN3098; SEQ ID NO: 55), at concentrations ranging from 3.7 nM to 100 nM or 3.3 nM to 90 nM in a series of 3-fold dilutions prepared in HBS-ET running buffer were injected at a flow rate of 30 μL/min for 4 minutes or 50 μL/min for 5 minutes. The dissociation of different CD40 reagents bound to anti-CD40 bivalent parental and anti-CD40×CD40 bispecific antibodies was monitored for 10 minutes in HBS-ET running buffer. At the end of each cycle, the anti-CD40 bivalent parental and anti-CD40×CD40 bispecific antibodies capture surface was regenerated using a 12 sec injection of 20 mM H₃PO₄.
as §1

[6] = molecular target: T4, human CD40 (hCD40) expressed on cells; experiment: cell-based or functional assay; remark: listed apart in the source
[7] = molecular target: T4, human CD40 (hCD40) expressed on cells; experiment: cell-based or functional assay; remark: listed apart in the source
[8] = molecular target: T4, human CD40 (hCD40) expressed on cells; experiment: cell-based or functional assay; remark: listed apart in the source

Binder	EC50 [2] [nM]	MFI at 100 nM [2] [MFI]	EC50 [3] [nM]	MFI at 100 nM [3] [MFI]	IC50, 900 pM hCD40L, Raji NFkB-luc [4] [M]	Max % activation, no ligand, Raji NFkB-luc [4] [%]	Max % inhibition, 900 pM hCD40L, Raji NFkB-luc [4] [%]	% max blockade relative to no mAb, IL-6, donor 1 [6] [%]	% max blockade relative to no mAb, IL-6, donor 2 [6] [%]	% max blockade relative to no mAb, IL-6, donor 3 [6] [%]	% max blockade relative to no mAb, TNFa, donor 1 [7] [%]	% max blockade relative to no mAb, TNFa, donor 2 [7] [%]	% max blockade relative to no mAb, TNFa, donor 3 [7] [%]	% max blockade relative to no mAb, IL-10, donor 1 [8] [%]	% max blockade relative to no mAb, IL-10, donor 2 [8] [%]	% max blockade relative to no mAb, IL-10, donor 3 [8] [%]	also measured
B1	10	11500	1.5	2410	6.05e-11	15	92	–	–	–	–	–	–	–	–	–	kon [1]: 385000 M⁻¹ s⁻¹
B2	3.7	24100	0.8	2450	7.7e-11	25	81	–	–	–	–	–	–	–	–	–	EC50, no ligand, Raji NFkB-luc [4]: > 100 nM
B3	1	33900	0.45	2620	8.95e-12	9	67	–	–	–	–	–	–	–	–	–	Kd [5]: 3.16 nM; koff [5]: 0.00333 s⁻¹; kon [5]: 1.05e+06 M⁻¹ s⁻¹; t1/2 [5]: 3.5 min
B4	8.4	43100	1.9	3850	1.07e-10	13	82	84	92.7	92.7	44.7	74.1	70.4	80.7	86.9	89.3	–
B5	2.1	48700	1.1	3850	1.02e-10	5	68	83.5	92	92	53.5	68.4	69.1	81.5	94.5	90.6	–
